B1: TPR t1 (parent)
chain: GACCAAUCUGCCCUCAGAGCUCGAGAACAUCUUCGGAUGCAGAGGAGGCAGGCUUCGGUGGCGCGAUAGCGCCAACGUCCUCAACCUCCAAUGCAUCCCACCACAUGAUGAUGCCUGAAGAGCCUUGGUUUUUUG

Variants of: B1
Assay: polymerase ribozyme fitness, log enrichment relative to wild type (log ratio); higher = more active; in vitro selection for triplet polymerase activity
How it was run: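 Both subunits of a heterodimeric triplet polymerase ribozyme were given their own mutant library, built by PCR and transcribed. Each library was annealed with a biotinylated primer, the partner subunit and triplets, incubated frozen at −7 °C, and its extended constructs gel-excised, captured on streptavidin beads and amplified by RT-PCR, all in one round done in triplicate. Fitness is the logarithm of genotype enrichment relative to wild-type enrichment, with replicates averaged by inverse-variance weighting. That logarithm is base 2, and Illumina-sequenced genotypes needed ≥10 input reads and ≥1 read per output.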

Variant | polymerase ribozyme fitness (log ratio)
GACCAAGCUGCCCUCAGAGCUCGAGAAUAUCUUCGGAUGCAGAGGAGACAGGCUUCGGUGACGCGAUAGCGCCAACGUCCUCAACCUCCAAUGCAUCCCACCACAUGAUGAUGCCUGAAGAGCCUUGGUUUUUUG | -1.28
GACCAAGCUGCCCUCAGAGCUCGAGAACAUCUUCGGAUGUAGAGGAGGCAGGCUUCGGUGGCGCGAUAGCGCCAACGUCCUCAACCUCCAAUGCAUCCCACCACAUGAUGAUGCCUGAAGAGCCUUGGUUUUUUG | 0.849
GACCAAGCUGCCCUCAGAGCUCGAGAACAUCUUCGGAUGUAGAGGAGGCAGGCUUCGGUGGCGCGAUAGCGACAACGUCCUCAACUUCCAAUUCAUCCCACAACAAGAUGAUGCCUGAAGAGCCUUGGUUUUUUG | -5.6
GACCAAGCUGCCCUCAGAGCUCGAGAACAUCUUCGGAUGCAGAGGAGGUAGGCUUUGGUGGCGCGAUAGCGCCAACGCCCUCAACCUCCAAUGUAUCCCACCACAUGAUGCUGCCUGAAGAGCCUUGGUUUUUUG | -0.959
GACCAAGCUGCCCUCAGAGCUCGAGAACAUCUUCGGAUGCAGAGGAGGCAGGGUUCGGUGGCGCGAUAGCGCCAACGUCCUCAACCUCCAAUGCAUCCCACCACAUGAUGAUGCUGGAAGAGCCUUGGUUUUUUG | -0.555
GACCAAGCUGCCCUCAGAGCUCGAGAACAUCUUCGGAUGCAGAGGAGGCAGGUUUCGGUGGGGCGAUAGCGCCAACGUCCUCAACCUCCAAUGCAUCCCAGAACAUGAUGAUGCCUGAAUAGCCUUAGUUUUUUG | -7.14
GACCAAGCUGCCCUCAGAGCUCGAGAACAUCUUCGGAUGCAGAGGAGGCAGGCUUAGGUGGCGCGAUAGCGCCAACGUCCUCAGCCUCCAAUGCAUCCCACCACAUGAUGAUGCCUGAAGAGCCUUGGUUUUGUU | -0.824
GACCAAGCUGCCCUCAGAGCUCGAGAACAUCUUCGGAUGCAGAGGAGGCAGGCUUAUGUGGCGCGAUAGCGCCAACGUCCUCAACCUCAAAUGCAUCCCACCACAUGAUGAUGCCUGAAGAGCCUUGGUUUUUUG | -0.967
GACCAAGCUGCCCUCAGAGCUCGAGAACAUCUUCGGAUGCAGAGGAGGCAGGCUUGGGUGGCGCGAUAGCGCCAACGUCCUCAACGUCCAAUGCAGCCCACCACAUGAUGAUGCCUGAAGAGCCUUGGUUUUUUG | -2.15
GACCAAGCUGCCCUCAGAGCUCGAGAACAUCUUCGGAUGCAGAGGAGGCAGGCUUCGGUGGCGUGAUAGCGCCAACGUCCUCAACCUCCAAUGCAUUCCACCACAUAAUGAAGCCUGAAGAGCCUUGGUUUUUUG | -5.51
GACCAAGCUGCCCUCAGAGCUCGAGAACAUCUUCGGAUGCAGAGGAGGCAGGCUUCGGUGGCGCGAUAGAGUCAACGUCCUCAACCUCCAAUCCAUCCCACCACAUGAUGAUGCUUGAAGAGCCUUGGUUUUUUG | -4.07
GACCAAGCUGCCCUCAGAGCUCGAGAACAUCUUCGGAUGCAGAGGAGGCAGGCUUCGGUGGCGCGAUAGGGCCAACGUCCUCAACCUCCAAUGCAUCCCACCACAUGAUGAUGCCUGAAGAGCCUUGGUUUUUUG | -2.23
GACCAAGCUGCCCUCAGAGCUCGAGAACAUCUUCGGAUGCAGAGGAGGCAGGCUUCGGUGGCGCGAUAGGGCCAACGUCCUCAACCUCCAAUGCAUCCCACUACAAGAUGAUGCCUGAAGAGCCUUGGUUUUUUG | -4.46
GACCAAGCUGCCCUCAGAGCUCGAGAACAUCUUCGGAUGCAGAGGAGGCAGGCUUCGGUGGCGCGAUAGUGCCAACGUCCUCCACCUCCAAUGCAUACCACCACAUGAUGAUGCCUGAAGAGCCUUGGUUUUUUG | -5.37
GACCAAGCUGCCCUCAGAGCUCGAGAACAUCUUCGGAUGCAGAGGAGGCAGGCUUCGGUGGCGCGAUAGUGCCAACGUCCUCAACCUCCAAUCCAUCCCACCACAUGAUGAUGCCUGAAGAGCCUUGGUUUUUUG | -0.518
GACCAAGCUGCCCUCAGAGCUCGAGAACAUCUUCGGAUGCAGAGGAGGCAGGCUUCGGUGGCGCGAUAGCGGCAACGUCCUCAACCUCCAAUGCAUCCCACCACAUGAUGAUGCCUGAAGAGCCUUGGUUUUUUG | 0.441
GACCAAGCUGCCCUCAGAGCUCGAGAACAUCUUCGGAUGCAGAGGAGGCAGGCUUCGGUGGCGCGAUAGCGUCAACGUCCUCAACCUCCAAUGCAUCCCACCACAUGAUGAUGCCUGAAGAGCCUUGGUUUUUUG | 0.255
GACCAAGCUGCCCUCAGAGCUCGAGAACAUCUUCGGAUGCAGAGGAGGCAGGCUUCGGUGGCGCGAUAGCGCCAACGUUUUCAACCUCCAAUGCAUCCCACCACAUGAUGAUGCCUGAAGAGCCUUGGUUUUUUG | -1.81
GACCAAGCUGCCCUCAGAGCUCGAGAACAUCUUCGGAUGCAGAGGAGGCAGGCUUCGGUGGCGCGAUAGCGCCAACGUUCUCAACCUCCAAUGCAUCCCACCACAUGAUGAUGCCUGAAGAGCGUUGGUUUUUUG | 2.41
GACCAAGCUGCCCUCAGAGCUCGAGAACAUCUUCGGAUGCAGAGGAGGCAGGCUUCGGUGGCGCGAUAGCGCCAACGUCCUCAACCUUCAAUGCAUCCCACCACAUGAUGAUGCCUGAAGAGCCUUGGUUUUUUG | -0.443
GACCAAGCUGCCCUCAGAGCUCGAGAACAUCUUCGGAUGCAGAGGAGGCAGGCUUCGGUGGCGCGAUAGCGCCAACGUCCUCAACCUCCAAUGGAUCCCACCACAUGAUGAUGCCUGAAGAGCCUUGGUUUUUUG | -0.426
